Experiments:
[1] = tested on: HeLa Kyoto; assay: solubility change mitosis vs G1/S (difference of NP-40 vs SDS log2 ratios) (log2 ratio difference); higher = more soluble in mitosis
[2] = tested on: HeLa Kyoto; assay: solubility in G1/S (NP-40 vs SDS abundance) (log2 ratio); higher = more soluble; conditions: cell cycle stage: G1/S
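Throughout, for solubility change mitosis vs G1/S (difference of NP-40 vs SDS log2 ratios): synchronized HeLa Kyoto cells (double thymidine block for G1/S, nocodazole release for mitosis), protein amounts in NP-40 versus SDS lysates quantified by mass spectrometry, three biological replicates.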
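Throughout, for solubility in G1/S (NP-40 vs SDS abundance): HeLa Kyoto cells arrested at G1/S by double thymidine block, proteins quantified by TMT10plex mass spectrometry in mild NP-40 versus SDS extracts, three biological replicates.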

| Substance | solubility change mitosis (log2) [1] | solubility in G1/S (log2) [2] |
| --- | --- | --- |
| MAEDEPDAKSPKTGGRAPPGGAEAGEPTTLLQRLRGTISKAVQNKVEGILQDVQKFSDNDKLYLYLQLPSGPTTGDKSSEPSTLSNEEYMYAYRWIRNHLEEHTDTCLPKQSVYDAYRKYCESLACCRPLSTANFGKIIREIFPDIKARRLGGRGQSKYCYSGIRRKTLVSMPPLPGLDLKGSESPEMGPEVTPAPRDELVEAACALTCDWAERILKRSFSSIVEVARFLLQQHLISARSAHAHVLKAMGLAEEDEHAPRERSSKPKNGLENPEGGAHKKPERLAQPPKDLEARTGAGPLARGERKKSVVESSAPGANNLQVNALVARLPLLLPRAPRSLIPPIPVSPPILAPRLSSGALKVATLPLSSRAGAPPAAVPIINMILPTVPALPGPGPGPGRAPPGGLTQPRGTENREVGIGGDQGPHDKGVKRTAEVPVSEASGQAPPAKAAKQDIEDTASDAKRKRGRPRKKSGGSGERNSTPLKSAAAMESAQSSRLPWETWGSGGEGNSAGGAERPGPMGEAEKGAVLAQGQGDGTVSKGGRGPGSQHTKEAEDKIPLVPSKVSVIKGSRSQKEAFPLAKGEVDTAPQGNKDLKEHVLQSSLSQEHKDPKATPP [RFX5] | -0.117 | 0.487 |
| MSLRRHIGNPEYLMKRIPQNPRYQHIKSRLDTGNSMTKYTEKLEEIKKNYRYKKDELFKRLKVTTFAQLIIQVASLSDQTLEVTAEEIQRLEDNDSAASDPDAETTARTNGKGNPGEQSPSPEQFINNAGAGDSSRSTLQSVISGVGELDLDKGPVKKAEPHTKDKPYPDCPFLLLDVRDRDSYQQCHIVGAYSYPIATLSRTMNPYSNDILEYKNAHGKIIILYDDDERLASQAATTMCERGFENLFMLSGGLKVLAQKFPEGLITGSLPASCQQALPPGSARKRSSPKGPPLPAENKWRFTPEDLKKIEYYLEEEQGPADHPSRLNQANSSGRESKVPGARSAQNLPGGGPASHSNPRSLSSGHLQGKPWK [CEP41] | 0.231 | 0.311 |
| SHPRH | 0.00438 | -0.418 |
| MGIWQRLLLFGGVSLRAGGGATAPLGGSRAMVCGRQLSGAGSETLKQRRTQIMSRGLPKQKPIEGVKQVIVVASGKGGVGKSTTAVNLALALAANDSSKAIGLLDVDVYGPSVPKMMNLKGNPELSQSNLMRPLLNYGIACMSMGFLVEESEPVVWRGLMVMSAIEKLLRQVDWGQLDYLVVDMPPGTGDVQLSVSQNIPITGAVIVSTPQDIALMDAHKGAEMFRRVHVPVLGLVQNMSVFQCPKCKHKTHIFGADGARKLAQTLGLEVLGDIPLHLNIREASDTGQPIVFSQPESDEAKAYLRIAVEVVRRLPSPSE [NUBPL] | 0.138 | 0.45 |
| MESTPSRGLNRVHLQCRNLQEFLGGLSPGVLDRLYGHPATCLAVFRELPSLAKNWVMRMLFLEQPLPQAAVALWVKKEFSKAQEESTGLLSGLRIWHTQLLPGGLQGLILNPIFRQNLRIALLGGGKAWSDDTSQLGPDKHARDVPSLDKYAEERWEVVLHFMVGSPSAAVSQDLAQLLSQAGLMKSTEPGEPPCITSAGFQFLLLDTPAQLWYFMLQYLQTAQSRGMDLVEILSFLFQLSFSTLGKDYSVEGMSDSLLNFLQHLREFGLVFQRKRKSRRYYPTRLAINLSSGVSGAGGTVHQPGFIVVETNYRLYAYTESELQIALIALFSEMLYRFPNMVVAQVTRESVQQAIASGITAQQIIHFLRTRAHPVMLKQTPVLPPTITDQIRLWELERDRLRFTEGVLYNQFLSQVDFELLLAHARELGVLVFENSAKRLMVVTPAGHSDVKRFWKRQKHSS [GTF2H4] | 0.00292 | -0.135 |
| MLQKPRNRGRSGGQAERDRDWSHSGNPGASRAGEDARVLRDGFAEEAPSTSRGPGGSQGSQGPSPQGARRAQAAPAVGPRSQKQLELKVSELVQFLLIKDQKKIPIKRADILKHVIGDYKDIFPDLFKRAAERLQYVFGYKLVELEPKSNTYILINTLEPVEEDAEMRGDQGTPTTGLLMIVLGLIFMKGNTIKETEAWDFLRRLGVYPTKKHLIFGDPKKLITEDFVRQRYLEYRRIPHTDPVDYEFQWGPRTNLETSKMKVLKFVAKVHNQDPKDWPAQYCEALADEENRARPQPSGPAPSS [NDNL2] | 0.116 | 0.289 |
| MSLPLTEEQRKKIEENRQKALARRAEKLLAEQHQRTSSGTSIAGNPFQAKQGPSQNFPRESCKPVSHGVIFKQQNLSSSSNADQRPHDSHSFQAKGIWKKPEEMPTACPGHSPRSQMALTGISPPLAQSPPEVPKQQLLSYELGQGHAQASPEIRFTPFANPTHKPLAKPKSSQETPAHSSGQPPRDAKLEAKTAKASPSGQNISYIHSSSESVTPRTEGRLQQKSGSSVQKGVNSQKGKCVRNGDRFQVLIGYNAELIAVFKTLPSKNYDPDTKTWNFSMNDYSALMKAAQSLPTVNLQPLEWAYGSSESPSTSSEGQAGLPSAPSLSFVKGRCMLISRAYFEADISYSQDLIALFKQMDSRRYDVKTRKWSFLLEEHSKLIAKVRCLPQVQLDPLPTTLTLAFASQLKKTSLSLTPDVPEADLSEVDPKLVSNLMPFQRAGVNFAIAKGGRLLLADDMGLGKTIQAICIAAFYRKEWPLLVVVPSSVRFTWEQAFLRWLPSLSPDCINVVVTGKDRLTAGLINIVSFDLLSKLEKQLKTPFKVVIIDESHFLKNSRTARCRAAMPVLKVAKRVILLSGTPAMSRPAELYTQIIAVKPTFFPQFHAFGLRYCDAKRMPWGWDYSGSSNLGELKLLLEEAVMLRRLKSDVLSQLPAKQRKIVVIAPGRINARTRAALDAAAKEMTTKDKTKQQQKDALILFFNRTAEAKIPSVIEYILDLLESGREKFLVFAHHKVVLDAITQELERKHVQHIRIDGSTSSAEREDLCQQFQLSERHAVAVLSITAANMGLTFSSADLVVFAELFWNPGVLIQAEDRVHRIGQTSSVGIHYLVAKGTADDYLWPLIQEKIKVLAEAGLSETNFSEMTESTDYLYKDPKQQKIYDLFQKSFEKEGSDMELLEAAESFDPGSASGTSGSSSQNMGDTLDESSLTASPQKKRRFEFFDNWDSFTSPL [SMARCAL1] | 0.0546 | 0.0557 |
| MEQRRVTDFFARRRPGPPRIAPPKLACRTPSPARPALRAPASATSGSRKRARPPAAPGRDQARPPARRRLRLSVDEVSSPSTPEAPDIPACPSPGQKIKKSTPAAGQPPHLTSAQDQDTISELASCLQRARELGARVRALKASAQDAGESCTPEAEGRPEEPCGEKAPAYQRFHALAQPGLPGLVLPYKYQVLAEMFRSMDTIVGMLHNRSETPTFAKVQRGVQDMMRRRFEECNVGQIKTVYPASYRFRQERSVPTFKDGTRRSDYQLTIEPLLEQEADGAAPQLTASRLLQRRQIFSQKLVEHVKEHHKAFLASLSPAMVVPEDQLTRWHPRFNVDEVPDIEPAALPQPPATEKLTTAQEVLARARNLISPRMEKALSQLALRSAAPSSPGSPRPALPATPPATPPAASPSALKGVSQDLLERIRAKEAQKQLAQMTRCPEQEQRLQRLERLPELARVLRSVFVSERKPALSMEVACARMVGSCCTIMSPGEMEKHLLLLSELLPDWLSLHRIRTDTYVKLDKAADLAHITARLAHQTRAEEGL [CDT1] | 0.575 | 0.0981 |
| MDIAIHHPWIRRPFFPFHSPSRLFDQFFGEHLLESDLFPTSTSLSPFYLRPPSFLRAPSWFDTGLSEMRLEKDRFSVNLDVKHFSPEELKVKVLGDVIEVHGKHEERQDEHGFISREFHRKYRIPADVDPLTITSSLSSDGVLTVNGPRKQVSGPERTIPITREEKPAVTAAPKK [CRYAB] | 0.00397 | -0.171 |
| MDPSADTWDLFSPLISLWINRFYIYLGFAVSISLWICVQIVIKTQGKNLQEKSVPKAAQDLMTNGYVSLQEKDIFVSGVKIFYGSQTGTAKGFATVLAEAVTSLDLPVAIINLKEYDPDDHLIEEVTSKNVCVFLVATYTDGLPTESAEWFCKWLEEASIDFRFGKTYLKGMRYAVFGLGNSAYASHFNKVGKNVDKWLWMLGAHRVMSRGEGDCDVVKSKHGSIEADFRAWKTKFISQLQALQKGERKKSCGGHCKKGKCESHQHGSEEREEGSHEQDELHHRDTEEEEPFESSSEEEFGGEDHQSLNSIVDVEDLGKIMDHVKKEKREKEQQEEKSGLFRNMGRNEDGERRAMITPALREALTKQGYQLIGSHSGVKLCRWTKSMLRGRGGCYKHTFYGIESHRCMETTPSLACANKCVFCWRHHTNPVGTEWRWKMDQPEMILKEAIENHQNMIKQFKGVPGVKAERFEEGMTVKHCALSLVGEPIMYPEINRFLKLLHQCKISSFLVTNAQFPAEIRNLEPVTQLYVSVDASTKDSLKKIDRPLFKDFWQRFLDSLKALAVKQQRTVYRLTLVKAWNVDELQAYAQLVSLGNPDFIEVKGVTYCGESSASSLTMAHVPWHEEVVQFVHELVDLIPEYEIACEHEHSNCLLIAHRKFKIGGEWWTWIDYNRFQELIQEYEDSGGSKTFSAKDYMARTPHWALFGASERGFDPKDTRHQRKNKSKAISGC [TYW1] | -0.205 | -0.157 |
| MSVSARSAAAEERSVNSSTMVAQQKNLEGYVGFANLPNQVYRKSVKRGFEFTLMVVGESGLGKSTLINSLFLTDLYSPEYPGPSHRIKKTVQVEQSKVLIKEGGVQLLLTIVDTPGFGDAVDNSNCWQPVIDYIDSKFEDYLNAESRVNRRQMPDNRVQCCLYFIAPSGHGLKPLDIEFMKRLHEKVNIIPLIAKADTLTPEECQQFKKQIMKEIQEHKIKIYEFPETDDEEENKLVKKIKDRLPLAVVGSNTIIEVNGKRVRGRQYPWGVAEVENGEHCDFTILRNMLIRTHMQDLKDVTNNVHYENYRSRKLAAVTYNGVDNNKNKGQLTKSPLAQMEEERREHVAKMKKMEMEMEQVFEMKVKEKVQKLKDSEAELQRRHEQMKKNLEAQHKELEEKRRQFEDEKANWEAQQRILEQQNSSRTLEKNKKKGKIF [SEPT7] | 0.00373 | 0.245 |
| MAVWIQAQQLQGEALHQMQALYGQHFPIEVRHYLSQWIESQAWDSVDLDNPQENIKATQLLEGLVQELQKKAEHQVGEDGFLLKIKLGHYATQLQNTYDRCPMELVRCIRHILYNEQRLVREANNGSSPAGSLADAMSQKHLQINQTFEELRLVTQDTENELKKLQQTQEYFIIQYQESLRIQAQFGPLAQLSPQERLSRETALQQKQVSLEAWLQREAQTLQQYRVELAEKHQKTLQLLRKQQTIILDDELIQWKRRQQLAGNGGPPEGSLDVLQSWCEKLAEIIWQNRQQIRRAEHLCQQLPIPGPVEEMLAEVNATITDIISALVTSTFIIEKQPPQVLKTQTKFAATVRLLVGGKLNVHMNPPQVKATIISEQQAKSLLKNENTRNDYSGEILNNCCVMEYHQATGTLSAHFRNMSLKRIKRSDRRGAESVTEEKFTILFESQFSVGGNELVFQVKTLSLPVVVIVHGSQDNNATATVLWDNAFAEPGRVPFAVPDKVLWPQLCEALNMKFKAEVQSNRGLTKENLVFLAQKLFNNSSSHLEDYSGLSVSWSQFNRENLPGRNYTFWQWFDGVMEVLKKHLKPHWNDGAILGFVNKQQAHDLLINKPDGTFLLRFSDSEIGGITIAWKFDSQERMFWNLMPFTTRDFSIRSLADRLGDLNYLIYVFPDRPKDEVYSKYYTPVPCESATAKAVDGYVKPQIKQVVPEFVNASADAGGGSATYMDQAPSPAVCPQAHYNMYPQNPDSVLDTDGDFDLEDTMDVARRVEELLGRPMDSQWIPHAQS [STAT5B] | -0.309 | -0.0111 |

— the supplement of paper PMC5998384
